From paper PMC5046105, “Improved affinity at the cost of decreased specificity: a recurring theme in PDZ-peptide interactions” (Scientific Reports, 2016)
Ends that are not written are not given here.

Key:
[1] = molecular target: T1, pWT PDZ2 L391F (Homo sapiens, UniProt Q12959, C378A/I342W/L391F); assay: Stopped-flow binding kinetics, peptide with pWT PDZ2 L391F
T1 construct: constituting SAP97 residues 311–407 and the mutations I342W and C372A; His-tagged lipoyl protein domain (N, cleaved yes); made in house
T1 sequence (Q12959 311-407 I342W/C378A/L391F): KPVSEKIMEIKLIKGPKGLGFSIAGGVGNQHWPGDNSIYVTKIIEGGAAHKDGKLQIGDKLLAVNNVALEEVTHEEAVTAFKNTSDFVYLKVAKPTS
Protocol: (§1) The basic experimental parameters determined were the rate constants of association (kon) and dissociation (koff) for each peptide and for all PDZ variants, respectively, in a procedure described in Fig. 2 for the interaction between PDZØ9 and the EKKHTLL peptide as an example.
(§2) Figure 2 Determination of the two rate constants kon and koff for PDZØ9 binding to the EKKHTLL peptide. kon and koff were determined in separate experiments using stopped-flow spectroscopy and monitoring the change in Trp fluorescence upon binding. (a) The experimental trace was obtained by averaging of three individual experiments in which 11 μM of the EKKHTLL peptide was mixed with 1 μM PDZØ9. The trace was fitted to a single exponential function to obtain the observed rate constant, kobs. […] (c) In a displacement reaction a pre-formed complex between PDZØ9 (1 μM) and the EKKHTLL peptide (2 μM) was mixed with a large excess of dansyl-labeled peptide corresponding to the C-terminal […] of HPV18 E6 (150 μM). […] At high concentrations of dansylated peptide, none of the dissociated EKKHTLL will re-bind, and fitting to a single exponential function returns a kobs value which is equal to the dissociation rate constant, koff, of the pre-formed complex.
(§3) All of the stopped-flow experiments conducted in order to measure the rate constants for the peptide/PDZ interactions, were performed on an SX-20 MV stopped-flow spectrometer (Applied Photophysics Leatherhead, UK) at 10 °C in 50 mM potassium phosphate buffer, pH 7.5. Fluorescence was monitored using the change in emission of Trp342 in the PDZ variants (excitation at 280 nm; emission at 330 ± 30 nm). The peptides were N-acetylated (Ontores Biotechnologies) and the concentration of the respective stock solution was determined with either absorbance, quantitative amino acid analysis or direct detect (EMD Millipore). The rate constants of association, kon, and dissociation, koff, were determined in separate experiments. […] For each PDZ variant the kobs values were plotted versus the concentration of peptide and fitted to the general equation for a reversible bimolecular interaction[38][39] from which kon was derived. The koff was measured in a displacement experiment in which a pre-formed complex of PDZ variant (1 μM) and peptide (2 μM) was mixed with high concentrations of a dansylated RRRETQV-peptide (100, and 150 μM), which competes with the unlabelled peptide for binding to the PDZ. […] The kobs value at high peptide concentration is equal to the overall koff value, as described previously.

[2] = molecular target: T2, pWT PDZ2 (pseudo wild type SAP97 PDZ2, I342W/C378A) (Homo sapiens, UniProt Q12959, C378A/I342W); assay: Stopped-flow binding kinetics, peptide with pWT PDZ2
T2 construct: constituting SAP97 residues 311–407 and the mutations I342W and C372A; His-tagged lipoyl protein domain (N, cleaved yes); made in house
T2 sequence (Q12959 311-407 I342W/C378A): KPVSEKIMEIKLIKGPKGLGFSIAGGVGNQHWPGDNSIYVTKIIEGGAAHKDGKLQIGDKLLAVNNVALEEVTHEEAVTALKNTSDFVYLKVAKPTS
Protocol: as §1, §2, §3

[3] = molecular target: T3, PDZØ9 (pWT SAP97 PDZ2 L391F/K392M) (Homo sapiens, UniProt Q12959, C378A/I342W/K392M/L391F); assay: Stopped-flow binding kinetics, peptide with PDZØ9
T3 construct: constituting SAP97 residues 311–407 and the mutations I342W and C372A; His-tagged lipoyl protein domain (N, cleaved yes); made in house
T3 sequence (Q12959 311-407 I342W/C378A/L391F/K392M): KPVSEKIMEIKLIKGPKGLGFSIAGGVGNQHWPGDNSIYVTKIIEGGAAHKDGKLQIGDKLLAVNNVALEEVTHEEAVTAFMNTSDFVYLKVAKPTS
Protocol: as §1, §2, §3

[4] = molecular target: T4, pWT PDZ2 K392M (Homo sapiens, UniProt Q12959, C378A/I342W/K392M); assay: Stopped-flow binding kinetics, peptide with pWT PDZ2 K392M
T4 construct: constituting SAP97 residues 311–407 and the mutations I342W and C372A; His-tagged lipoyl protein domain (N, cleaved yes); made in house
T4 sequence (Q12959 311-407 I342W/C378A/K392M): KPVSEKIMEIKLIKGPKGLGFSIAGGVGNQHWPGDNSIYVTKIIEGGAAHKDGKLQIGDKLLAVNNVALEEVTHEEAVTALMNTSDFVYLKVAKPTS
Protocol: as §1, §2, §3

[5] = molecular target: pWT PDZ2 L391F (human) (UniProt Q12959); assay: stopped-flow spectroscopy
[6] = molecular target: PDZØ9, engineered variant (L391F/K392M) of pWT SAP97 PDZ2 (human) (UniProt Q12959); assay: stopped-flow spectroscopy
[7] = molecular target: pWT PDZ2 K392M (human) (UniProt Q12959); assay: stopped-flow spectroscopy
[8] = molecular target: Pseudo wild type SAP97 PDZ2 (second PDZ domain of synapse associated protein 97, I342W/C378A) (human) (UniProt Q12959); assay: stopped-flow spectroscopy
[9] = Kd = koff/kon, pH 7.5, 10 °C, ± propagated standard error
[10] = Trp342 fluorescence, 1 µM PDZ, peptide 2–40 µM, N-acetylated peptide, 50 mM potassium phosphate pH 7.5, 10 °C, value ± standard error
[11] = displacement of pre-formed complex (1 µM PDZ, 2 µM peptide) with 100 and 150 µM dansylated RRRETQV peptide, pH 7.5, 10 °C, value ± standard error

Molecule	koff [5]	kon [5]	koff [6]	kon [6]	koff [7]	kon [7]	koff [8]	kon [8]	other results
Ac-YRRESAI [YRRESAI]	–	–	–	–	–	–	–	–	Kd [1, 9]: 0.79 ± 0.01 µM; kon [1, 10]: 1.9e+07 ± 100000 M⁻¹ s⁻¹; koff [1, 11]: 15 ± 0.2 s⁻¹; Kd [2, 9]: 4.6 ± 0.1 µM; kon [2, 10]: 1.9e+07 ± 500000 M⁻¹ s⁻¹; koff [2, 11]: 87 ± 0.5 s⁻¹; Kd ([3]; Kd = koff/kon, stopped-flow, pH 7.5, 10 °C, ± propagated standard error): 0.77 ± 0.01 µM; koff ([3]; displacement of pre-formed complex (1 µM PDZ, 2 µM peptide) with 100 and 150 µM dansylated RRRETQV peptide, stopped-flow, pH 7.5, 10 °C, value ± standard error): 17 ± 0.2 s⁻¹; kon ([3]; stopped-flow, Trp342 fluorescence, 1 µM PDZ, peptide 2–40 µM, N-acetylated peptide, 50 mM potassium phosphate pH 7.5, 10 °C, value ± standard error): 2.2e+07 ± 200000 M⁻¹ s⁻¹; Kd [4, 9]: 4.2 ± 0.1 µM; kon ([4]; Trp342 fluorescence, 1 µM PDZ, peptide 2–40 µM, N-acetylated peptide, 50 mM potassium phosphate pH 7.5, 10 °C, value ± standard error (EKKHTLL: mean of two experiments)): 2.5e+07 ± 700000 M⁻¹ s⁻¹; koff [4, 11]: 105 ± 0.5 s⁻¹
dansyl-labeled peptide: dansyl-labeled peptide corresponding to the C-terminal six residues of HPV18 E6, competitor in displacement experiments (RRRETQV; also: dansyl label, position not given here) [reference compound]	–	–	–	–	–	–	–	–	kobs, binding of free PDZØ9 to the dansyl-labeled peptide ([3]; 150 μM dansyl-labeled peptide, initial part of displacement trace): ~1000 s⁻¹
Ac-EKKHTLL [EKKHTLL peptide (C-terminus of E9PN86_HUMAN, partial transcript of EIF3M_HUMAN)]	7.1 s⁻¹	1.1e+07 M⁻¹ s⁻¹	7.9 s⁻¹	1.4e+07 M⁻¹ s⁻¹	157 s⁻¹	1.1e+07 M⁻¹ s⁻¹	112 s⁻¹	1.2e+07 M⁻¹ s⁻¹	–
Ac-NSKETVV [NSKETVV peptide (C-terminus of E3 ubiquitin-protein ligase MARCH3)]	1.9 s⁻¹	1.3e+07 M⁻¹ s⁻¹	1.6 s⁻¹	1e+07 M⁻¹ s⁻¹	7.7 s⁻¹	9.7e+06 M⁻¹ s⁻¹	8.6 s⁻¹	1.3e+07 M⁻¹ s⁻¹	–
Ac-RSISTDV [RSISTDV peptide (C-terminus of protein FAM163B)]	4.3 s⁻¹	2.4e+07 M⁻¹ s⁻¹	4.3 s⁻¹	1.7e+07 M⁻¹ s⁻¹	31 s⁻¹	1.7e+07 M⁻¹ s⁻¹	26 s⁻¹	2.1e+07 M⁻¹ s⁻¹	–
SARSTDV [SARSTDV peptide (C-terminus of anoctamin-9)]	4 s⁻¹	1.8e+07 M⁻¹ s⁻¹	3.4 s⁻¹	1.3e+07 M⁻¹ s⁻¹	25 s⁻¹	1.2e+07 M⁻¹ s⁻¹	26 s⁻¹	1.6e+07 M⁻¹ s⁻¹	–
Ac-KRKETLV [KRKETLV peptide (C-terminus of neuroepithelial cell-transforming gene 1 protein, Net1)]	0.6 s⁻¹	7.4e+06 M⁻¹ s⁻¹	0.6 s⁻¹	8e+06 M⁻¹ s⁻¹	3.4 s⁻¹	7.2e+06 M⁻¹ s⁻¹	3 s⁻¹	6.4e+06 M⁻¹ s⁻¹	Kd [5]: 0.08 µM; Kd [6]: 0.08 µM; Kd [7]: 0.47 µM; Kd [8]: 0.47 µM

Further lines, with some results ahead:

koff [5]	kon [5]	koff [6]	kon [6]	koff [7]	kon [7]	koff [8]	kon [8]	Molecule	other results
15 s⁻¹	1.9e+07 M⁻¹ s⁻¹	17 s⁻¹	2.2e+07 M⁻¹ s⁻¹	105 s⁻¹	2.5e+07 M⁻¹ s⁻¹	87 s⁻¹	1.9e+07 M⁻¹ s⁻¹	Ac-YRRESAI [YRRESAI peptide (C-terminus of inward rectifier potassium channel 4, Kir2.3)]	–
3.8 s⁻¹	1.8e+07 M⁻¹ s⁻¹	2.6 s⁻¹	1.5e+07 M⁻¹ s⁻¹	62 s⁻¹	1.5e+07 M⁻¹ s⁻¹	71 s⁻¹	3.3e+07 M⁻¹ s⁻¹	Ac-TSRETDL [TSRETDL peptide (C-terminus of potassium voltage-gated channel subfamily A member 5, Kv1.5)]	–
8.8 s⁻¹	1.1e+07 M⁻¹ s⁻¹	6.3 s⁻¹	8.4e+06 M⁻¹ s⁻¹	150 s⁻¹	2.4e+07 M⁻¹ s⁻¹	154 s⁻¹	4e+07 M⁻¹ s⁻¹	Ac-VSKETPL [VSKETPL peptide (C-terminus of mitogen-activated protein kinase 12, p38γ)]	–
